From article PMC10203282, “Structural analysis of an endogenous 4-megadalton succinyl-CoA-generating metabolon” (Communications Biology, 2023)

Key:
[1] = biological target: dihydrolipoyl succinyltransferase (E2o) of the oxoglutarate dehydrogenase complex (Chaetomium thermophilum (endogenous in the native cell extract)); test: cryo-EM structure; native SEC fraction of C. thermophilum lysate, 0.3 mg/mL, single-particle analysis with octahedral symmetry; E2o core map at 3.35 Å
[2] = substrate: CC(C)(COP(=O)(O)OP(=O)(O)OC[C@H]1O[C@@H](n2cnc3c(N)ncnc32)[C@H](O)[C@@H]1OP(=O)(O)O)[C@@H](O)C(=O)NCCC(=O)NCCS; test: cells, lysate or membranes; format: biochemical, Thermochaetoides thermophila; details: native SEC fraction, 4 mM α-ketoglutarate, 3 mM NAD+, 2 mM ThDP, 2 mM MgCl2, 100 mM NaCl, 30 mM K2HPO4 pH 7.5, 37 °C, CoA 5-1000 µM, substrate excess inhibition, linear asymptote used

“dihydrolipoyl succinyltransferase (E2o) of the oxoglutarate dehydrogenase complex (enzyme)” was tested, and the stoichiometry N [1] was 24.

B1: OGDHc (E2o as CoA site) (Thermochaetoides thermophila DSM 1495) (protein)
chain: TYADKIIKVPQMAESITEGTLKQWNKAVGDYVEADEEIATIETDKIDVAVNAPEAGVIKEFFVNEEDTVLVGQDLVRLEVGGEKPAEAAKEQPKAAAPEPKVEEKKVPEAPAPEPSKTAAPAPAPPKQEAPASPKPASKPAETPAVTLGNREERRVKMNRMRLRIAERLKQSQNTAASLTTFNEVDMSALIEFRNKYKDEVLKKTGVKLGFMSAFSRAVVLAIRDLPVVNASIEGPNGGDTIVYRDYVDISVAVATEKGLVTPVVRNAETMDLITIEKTIAELGKKARDGKLTIEDMAGGTFTISNGGVFGSLMGTPIINLPQSAVLGLHAIKERPVAVNGKVEIRPMMYLALTYDHRLLDGREAVQFLVKVKEYIEDPRKMLL
notes: same complex as P1: endogenous native OGDHc in SEC fraction 6 of cell extract; with 2-oxoglutarate dehydrogenase, mitochondrial; Dihydrolipoyl dehydrogenase, mitochondrial; Alpha-ketoglutarate dehydrogenase subunit 4, mitochondrial
B1 was tested, and the Km [2] was 22.81 ± 11.93 µM.
